The source of these data is patent publication US20060034860A1 (CELLVIR, published 2006).

The target in experiment [1] is T1, Human RNUT1 (prey024605), prey fragments (Human, UniProt O95149 1-360).
T1 construct: also called Snurportin1; Snurportin
Briefly: yeast two-hybrid screen, bait IN (pB27), CEMC7 random primed cDNA prey library; table of bait-prey interactions.

Experiment [2] deals with T2, Human HBOA (prey001626), prey fragments (Human, UniProt O95251 1-611).
T2 construct: also called HBO1
T2 sequence (O95251 whole entry, the tested form may be a part): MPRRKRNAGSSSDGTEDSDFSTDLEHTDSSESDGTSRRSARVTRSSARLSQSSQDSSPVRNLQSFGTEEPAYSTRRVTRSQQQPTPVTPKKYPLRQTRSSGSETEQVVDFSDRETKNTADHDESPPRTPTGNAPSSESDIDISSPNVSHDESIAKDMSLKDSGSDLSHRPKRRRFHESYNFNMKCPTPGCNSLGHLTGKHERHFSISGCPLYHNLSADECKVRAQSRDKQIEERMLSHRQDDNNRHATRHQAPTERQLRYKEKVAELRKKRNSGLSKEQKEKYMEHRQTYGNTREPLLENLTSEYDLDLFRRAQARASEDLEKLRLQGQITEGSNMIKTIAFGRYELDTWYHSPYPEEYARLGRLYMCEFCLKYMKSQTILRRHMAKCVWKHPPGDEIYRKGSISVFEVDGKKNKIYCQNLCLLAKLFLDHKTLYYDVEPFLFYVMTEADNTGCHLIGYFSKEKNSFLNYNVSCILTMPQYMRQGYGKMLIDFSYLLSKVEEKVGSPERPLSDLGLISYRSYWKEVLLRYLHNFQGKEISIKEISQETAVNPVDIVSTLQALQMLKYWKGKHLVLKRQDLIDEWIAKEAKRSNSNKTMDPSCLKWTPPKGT
Put plainly: yeast two-hybrid screen, bait IN (pB27), CEMC7 oligo dT primed cDNA prey library; table of bait-prey interactions.

Experiment [3] concerns the target Human EIF3S3 (prey024567), prey fragments (Human, UniProt O15372 1-352). The experiment is described as above.
Experiment [4] concerns the target T3, ATF6 alpha (prey34104, hATF6), prey fragments (Human, UniProt P18850 1-670).
T3 construct: also called prey34106
T3 sequence: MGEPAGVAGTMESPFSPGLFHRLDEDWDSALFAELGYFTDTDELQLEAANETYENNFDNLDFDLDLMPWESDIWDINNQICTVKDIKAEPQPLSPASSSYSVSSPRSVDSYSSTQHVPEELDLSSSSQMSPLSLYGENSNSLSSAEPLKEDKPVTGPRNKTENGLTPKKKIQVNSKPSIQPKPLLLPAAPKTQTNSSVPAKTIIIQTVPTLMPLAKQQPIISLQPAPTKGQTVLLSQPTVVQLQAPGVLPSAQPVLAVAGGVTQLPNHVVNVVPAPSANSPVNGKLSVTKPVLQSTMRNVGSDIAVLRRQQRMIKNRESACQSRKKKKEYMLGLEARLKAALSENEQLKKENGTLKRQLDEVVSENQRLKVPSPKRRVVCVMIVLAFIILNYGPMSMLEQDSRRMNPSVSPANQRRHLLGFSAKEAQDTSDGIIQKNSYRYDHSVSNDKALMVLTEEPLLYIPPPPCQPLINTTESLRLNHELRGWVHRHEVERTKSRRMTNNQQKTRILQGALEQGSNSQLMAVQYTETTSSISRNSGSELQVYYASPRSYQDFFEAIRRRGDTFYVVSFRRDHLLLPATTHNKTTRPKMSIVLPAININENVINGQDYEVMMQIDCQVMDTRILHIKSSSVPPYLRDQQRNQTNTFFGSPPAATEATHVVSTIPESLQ
Put plainly: yeast two-hybrid screen, bait TM_v1 (pB6), Human CEMC7 Random Primed prey library; table of bait-prey interactions.

Experiment [5] has as its target T4, sterol regulatory element binding protein 2 (hSREBF2, hgx33), prey fragments (Human, UniProt Q12772 1-1141).
T4 construct: also called SREBP2
T4 sequence: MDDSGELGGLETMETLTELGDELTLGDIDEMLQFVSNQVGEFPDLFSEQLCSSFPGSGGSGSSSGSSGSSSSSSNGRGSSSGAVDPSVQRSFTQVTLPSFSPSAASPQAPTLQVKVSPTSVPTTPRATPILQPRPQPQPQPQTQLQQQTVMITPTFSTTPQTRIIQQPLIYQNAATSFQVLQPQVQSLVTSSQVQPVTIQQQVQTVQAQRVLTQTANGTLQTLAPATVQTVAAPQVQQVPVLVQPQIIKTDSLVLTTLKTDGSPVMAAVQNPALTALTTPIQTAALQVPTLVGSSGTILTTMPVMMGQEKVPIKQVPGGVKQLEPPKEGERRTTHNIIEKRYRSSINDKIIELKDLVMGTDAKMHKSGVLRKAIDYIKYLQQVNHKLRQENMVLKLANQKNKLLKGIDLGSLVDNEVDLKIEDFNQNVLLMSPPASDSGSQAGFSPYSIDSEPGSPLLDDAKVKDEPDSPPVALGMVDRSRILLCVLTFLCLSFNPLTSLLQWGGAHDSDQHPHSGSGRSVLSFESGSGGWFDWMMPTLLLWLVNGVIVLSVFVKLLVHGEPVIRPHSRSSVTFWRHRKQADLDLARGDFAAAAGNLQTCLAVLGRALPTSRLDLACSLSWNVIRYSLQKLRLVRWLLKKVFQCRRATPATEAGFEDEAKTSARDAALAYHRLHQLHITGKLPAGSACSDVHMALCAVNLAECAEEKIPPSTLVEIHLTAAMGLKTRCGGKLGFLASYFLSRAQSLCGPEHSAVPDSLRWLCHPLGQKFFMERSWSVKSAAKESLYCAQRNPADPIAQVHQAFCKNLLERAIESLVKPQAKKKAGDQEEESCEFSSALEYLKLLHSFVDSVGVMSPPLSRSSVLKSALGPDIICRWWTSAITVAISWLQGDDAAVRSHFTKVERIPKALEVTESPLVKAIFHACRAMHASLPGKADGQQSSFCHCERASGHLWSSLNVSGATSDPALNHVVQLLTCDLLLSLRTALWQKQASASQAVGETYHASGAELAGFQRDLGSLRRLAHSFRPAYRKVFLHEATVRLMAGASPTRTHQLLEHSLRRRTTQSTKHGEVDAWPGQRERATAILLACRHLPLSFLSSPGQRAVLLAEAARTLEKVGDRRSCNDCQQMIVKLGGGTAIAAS
The description is as above.

For experiment [6], the target named is T5, sterol regulatory element-binding protein 1 (hSREBF1, prey15532), prey fragments (Human, UniProt P36956 1-1147).
T5 construct: also called SREBP1; hSREBP 1
T5 sequence: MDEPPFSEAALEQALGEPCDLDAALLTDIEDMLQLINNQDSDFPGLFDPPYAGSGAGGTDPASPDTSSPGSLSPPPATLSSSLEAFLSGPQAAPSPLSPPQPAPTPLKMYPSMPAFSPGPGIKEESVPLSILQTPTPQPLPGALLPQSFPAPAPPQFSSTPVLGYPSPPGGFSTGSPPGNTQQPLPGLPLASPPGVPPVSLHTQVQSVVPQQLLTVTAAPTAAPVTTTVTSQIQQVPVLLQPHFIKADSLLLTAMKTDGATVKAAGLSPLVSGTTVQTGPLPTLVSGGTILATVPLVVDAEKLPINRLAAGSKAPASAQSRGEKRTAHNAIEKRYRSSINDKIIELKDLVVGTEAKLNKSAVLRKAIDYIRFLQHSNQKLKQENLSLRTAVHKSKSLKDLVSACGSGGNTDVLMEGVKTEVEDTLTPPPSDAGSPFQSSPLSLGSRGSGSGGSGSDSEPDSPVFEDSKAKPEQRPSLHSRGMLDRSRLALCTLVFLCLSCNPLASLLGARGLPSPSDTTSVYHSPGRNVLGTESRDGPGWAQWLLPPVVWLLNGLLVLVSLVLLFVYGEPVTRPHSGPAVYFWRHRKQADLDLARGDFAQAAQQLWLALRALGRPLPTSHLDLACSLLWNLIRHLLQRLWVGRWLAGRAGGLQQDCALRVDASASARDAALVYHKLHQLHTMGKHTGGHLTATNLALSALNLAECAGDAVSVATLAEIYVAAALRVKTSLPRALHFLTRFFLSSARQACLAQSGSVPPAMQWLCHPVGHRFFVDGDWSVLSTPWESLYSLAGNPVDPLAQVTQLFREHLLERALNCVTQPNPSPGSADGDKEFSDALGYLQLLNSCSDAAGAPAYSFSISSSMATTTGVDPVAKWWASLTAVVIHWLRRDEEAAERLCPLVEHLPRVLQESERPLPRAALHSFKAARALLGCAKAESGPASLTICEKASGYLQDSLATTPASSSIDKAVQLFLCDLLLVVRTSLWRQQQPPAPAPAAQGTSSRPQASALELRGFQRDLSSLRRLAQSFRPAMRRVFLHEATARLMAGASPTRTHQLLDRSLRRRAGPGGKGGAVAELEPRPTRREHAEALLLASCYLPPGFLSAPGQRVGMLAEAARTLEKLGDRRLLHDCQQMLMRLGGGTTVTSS
The description is as above.

Experiment [7] has as its target T6, PolyrC-Binding Protein PCBP1 (prey6634), prey fragments (Human, UniProt Q15365 1-356).
T6 construct: also called polyRC BP1; HNRPE1
Put plainly: yeast two-hybrid screen, bait VPU_v1 (pB27), Human CEMC7 dT Primed prey library; table of bait-prey interactions.

Sequence of Human EIF3S3 (prey024567), prey fragments (O15372 whole entry, the tested form may be a part): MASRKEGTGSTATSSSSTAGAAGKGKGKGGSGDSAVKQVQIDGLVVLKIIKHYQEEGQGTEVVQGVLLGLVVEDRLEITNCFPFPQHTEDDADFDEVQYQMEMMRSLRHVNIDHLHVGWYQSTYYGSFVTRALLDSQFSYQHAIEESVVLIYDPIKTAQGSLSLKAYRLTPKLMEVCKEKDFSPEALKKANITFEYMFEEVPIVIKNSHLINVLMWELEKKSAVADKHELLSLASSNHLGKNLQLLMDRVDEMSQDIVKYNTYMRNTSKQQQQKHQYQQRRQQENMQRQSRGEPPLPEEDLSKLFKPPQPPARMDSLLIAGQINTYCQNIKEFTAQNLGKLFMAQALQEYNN
T1 sequence (O95149 whole entry, the tested form may be a part): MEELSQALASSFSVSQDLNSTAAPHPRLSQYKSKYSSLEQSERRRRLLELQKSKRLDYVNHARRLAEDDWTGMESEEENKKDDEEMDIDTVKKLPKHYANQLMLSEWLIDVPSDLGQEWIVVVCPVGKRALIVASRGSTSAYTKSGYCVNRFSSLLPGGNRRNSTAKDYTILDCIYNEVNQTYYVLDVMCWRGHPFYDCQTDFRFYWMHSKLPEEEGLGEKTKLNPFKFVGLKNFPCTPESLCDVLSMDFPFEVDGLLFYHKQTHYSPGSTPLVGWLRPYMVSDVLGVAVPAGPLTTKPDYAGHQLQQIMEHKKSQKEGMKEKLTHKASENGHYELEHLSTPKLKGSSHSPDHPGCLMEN
T6 sequence (Q15365 whole entry, the tested form may be a part): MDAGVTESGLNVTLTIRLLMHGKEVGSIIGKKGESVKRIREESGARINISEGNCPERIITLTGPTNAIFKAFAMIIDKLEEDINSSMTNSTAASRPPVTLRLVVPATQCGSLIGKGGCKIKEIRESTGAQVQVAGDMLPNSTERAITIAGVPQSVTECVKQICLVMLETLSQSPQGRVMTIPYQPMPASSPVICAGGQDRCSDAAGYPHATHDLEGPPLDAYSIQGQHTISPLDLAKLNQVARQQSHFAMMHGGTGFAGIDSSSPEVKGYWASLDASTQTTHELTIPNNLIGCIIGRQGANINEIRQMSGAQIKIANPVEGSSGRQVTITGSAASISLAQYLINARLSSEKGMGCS

B1: HIV-1 Integrase (IN), bait IN (enzyme)
chain: FLDGIDKAQEEHEKYHSNWRAMASDFNLPPVVAKEIVASCDKCQLKGEAMHGQVDCSPGIWQLDCTHLEGKVILVAVHVASGYIEAEVIPAETGQETAYFLLKLAGRWPVTTIHTDNGSNFTSATVKAACWWAGIKQEFGIPYNPQSQGVVESMNKELKKIIGQVRDQAEHLKTAVQMAVFIHNFKRKGGIGGYSAGERIVDIIATDIQTKELQKQITKIQNFRVYYRDSRDPLWKGPAKLLWKGEGAVVIQDNSDIKVVPRRKAKIIRDYGKQMAGDDCVAGRQDED
With B1, the binding result in experiment [1], in experiment [2] and in experiment [3] was “binds” each time.

B2: cytoplasmic domain of HIV-1 Env TM Gp41, bait TM_v1 (other)
chain: VVLSIVNRVRQGYSPLSFQTHLPAQRGPDRPDGIEEEGGERDRDRSGPLVDGFLAIIWVDLRSLCLFSYHRLRDLLLIVTRIVELLGRRGWGVLKYWWNLLQYWIQELKNSAVSLLNATAIAVAEGTDRVIEILQRAFRAVLHIPVRIRQGLERALL
notes: also called TM cyto; TM Gp41 cytoplasmic domain
In the case of B2, the binding result in experiment [4], in experiment [5] and in experiment [6] was “binds” each time.

B3: HIV-1 Vpu, bait VPU_v1 (other)
chain: LQSLQVLAIVALVVATIIAIVVWTIVFIEYRKILRQRKIDRLINRITERAEDSGNESDGDQEELSALVERGHLAPWDVDDL
notes: It holds the N-terminal transmembrane anchor domain
Take B3: the binding result in experiment [7] was “binds”.
